Laboratory results taken from patent US5612455, “Nuclear factors and binding assay” (Tularik, Inc.).

Key:
[1] = molecular target: T1, NFAT3 full length (Homo sapiens) (UniProt Q14934); assay: cell_activity; settings: HepG2 cells; COS cells 50-fold independent of PMA and ionomycin
T1 sequence: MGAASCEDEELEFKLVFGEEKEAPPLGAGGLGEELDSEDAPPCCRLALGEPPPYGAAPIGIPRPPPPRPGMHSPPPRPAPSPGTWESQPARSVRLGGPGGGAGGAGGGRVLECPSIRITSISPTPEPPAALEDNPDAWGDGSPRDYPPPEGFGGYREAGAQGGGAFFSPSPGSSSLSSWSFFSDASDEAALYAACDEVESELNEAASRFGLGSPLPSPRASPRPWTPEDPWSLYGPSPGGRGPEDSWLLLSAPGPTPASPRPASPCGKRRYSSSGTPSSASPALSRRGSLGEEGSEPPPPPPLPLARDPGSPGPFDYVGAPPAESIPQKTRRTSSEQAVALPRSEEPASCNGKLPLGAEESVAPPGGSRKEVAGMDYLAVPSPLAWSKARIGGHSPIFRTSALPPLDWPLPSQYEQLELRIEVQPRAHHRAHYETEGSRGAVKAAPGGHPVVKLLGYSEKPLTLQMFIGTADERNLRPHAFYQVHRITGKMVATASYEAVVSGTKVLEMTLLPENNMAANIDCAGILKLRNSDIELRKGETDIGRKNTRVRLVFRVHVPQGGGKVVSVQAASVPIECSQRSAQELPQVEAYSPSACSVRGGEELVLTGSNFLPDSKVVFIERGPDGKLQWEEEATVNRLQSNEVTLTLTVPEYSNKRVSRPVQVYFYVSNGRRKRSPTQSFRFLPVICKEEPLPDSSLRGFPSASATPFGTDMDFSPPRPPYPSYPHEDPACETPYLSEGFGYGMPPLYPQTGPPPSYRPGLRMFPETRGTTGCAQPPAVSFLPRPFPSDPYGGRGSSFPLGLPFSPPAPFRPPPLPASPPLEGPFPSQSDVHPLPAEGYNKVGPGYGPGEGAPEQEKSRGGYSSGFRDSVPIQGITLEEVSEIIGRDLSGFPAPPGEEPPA

[2] = molecular target: T2, NFATp rel domain (353 aa, homologous to murine NFATp 185-537) (Homo sapiens, UniProt Q13469 SEQ:390-742); assay: EMSA; probe length not stated, core SEQ 15; affinity similar to NFATc and NFAT3; 50 mM KCl, RT; also purified on SEQ 17 affinity resin; settings: tags: N-terminal 8 aa heart muscle kinase site (pT7-HMK), E. coli
T2 sequence: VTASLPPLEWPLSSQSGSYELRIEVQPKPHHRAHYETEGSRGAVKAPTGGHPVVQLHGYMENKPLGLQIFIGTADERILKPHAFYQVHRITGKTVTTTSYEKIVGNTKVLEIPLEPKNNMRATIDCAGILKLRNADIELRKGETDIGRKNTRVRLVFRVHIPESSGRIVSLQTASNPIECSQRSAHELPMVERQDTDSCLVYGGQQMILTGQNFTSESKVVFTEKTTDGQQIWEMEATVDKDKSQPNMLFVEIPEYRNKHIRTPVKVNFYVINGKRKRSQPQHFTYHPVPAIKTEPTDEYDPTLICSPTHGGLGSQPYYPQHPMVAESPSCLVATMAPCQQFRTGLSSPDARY

[3] = molecular target: T3, NFAT4 rel domain (Homo sapiens, UniProt Q12968 SEQ:393-708); assay: EMSA; probe length not stated, core SEQ 15; also purified on SEQ 17 resin; settings: tags: N-terminal 8 aa heart muscle kinase site (pT7-HMK), E. coli
T3 sequence: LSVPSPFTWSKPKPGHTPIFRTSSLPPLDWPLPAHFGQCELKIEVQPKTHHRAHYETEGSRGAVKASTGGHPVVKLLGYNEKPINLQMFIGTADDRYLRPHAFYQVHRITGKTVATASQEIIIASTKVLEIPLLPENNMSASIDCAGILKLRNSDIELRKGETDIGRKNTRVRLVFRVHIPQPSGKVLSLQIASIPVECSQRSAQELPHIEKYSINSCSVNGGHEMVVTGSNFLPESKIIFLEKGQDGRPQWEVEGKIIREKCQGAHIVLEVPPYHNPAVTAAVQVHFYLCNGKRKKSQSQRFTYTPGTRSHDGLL

[4] = molecular target: T4, NFATc rel domain (NFATc-309) (Homo sapiens, UniProt O95644 SEQ:408-716); assay: EMSA; probe length not stated, core SEQ 15; affinity similar to NFATp and NFAT3; also purified on SEQ 17 resin; settings: tags: N-terminal 8 aa heart muscle kinase site (pT7-HMK), E. coli
T4 sequence: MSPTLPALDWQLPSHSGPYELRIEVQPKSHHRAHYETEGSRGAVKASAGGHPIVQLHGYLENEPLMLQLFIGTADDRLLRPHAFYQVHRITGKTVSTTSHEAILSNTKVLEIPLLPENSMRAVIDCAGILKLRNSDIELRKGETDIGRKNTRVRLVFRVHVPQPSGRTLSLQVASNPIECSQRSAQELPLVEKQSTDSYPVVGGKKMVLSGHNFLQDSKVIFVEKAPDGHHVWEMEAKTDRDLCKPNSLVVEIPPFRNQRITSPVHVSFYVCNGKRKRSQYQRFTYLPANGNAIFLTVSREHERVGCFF

[5] = molecular target: T5, NFAT3 rel domain (Homo sapiens, UniProt Q14934 SEQ:400-744); assay: EMSA; probe length not stated, core SEQ 15; affinity similar to NFATp and NFATc; also purified on SEQ 17 resin; settings: tags: N-terminal 8 aa heart muscle kinase site (pT7-HMK), E. coli
T5 sequence: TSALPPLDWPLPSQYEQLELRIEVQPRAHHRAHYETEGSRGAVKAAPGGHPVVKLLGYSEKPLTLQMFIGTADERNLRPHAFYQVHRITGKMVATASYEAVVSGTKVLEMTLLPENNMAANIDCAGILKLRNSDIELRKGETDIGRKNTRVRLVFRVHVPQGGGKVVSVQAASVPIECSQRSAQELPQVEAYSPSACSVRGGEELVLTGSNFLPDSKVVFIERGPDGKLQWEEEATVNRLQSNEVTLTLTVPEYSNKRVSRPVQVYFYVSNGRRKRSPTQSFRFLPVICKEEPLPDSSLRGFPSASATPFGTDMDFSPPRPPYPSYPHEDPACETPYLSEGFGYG

[6] = molecular target: NFAT3 rel domain + c-Jun/Fra-1 (Homo sapiens, UniProt Q14934;P05412;P15407 Q14934:400-744,P05412:1-331,P15407:1-271); assay: EMSA; highly cooperative; jun homodimers less effective; exact EMSA probe not stated; settings: tags: NFAT3 HMK site
[7] = molecular target: NFATc rel domain + c-Jun/Fra-1 (Homo sapiens, UniProt O95644-2;P05412;P15407 O95644-2:408-716,P05412:1-331,P15407:1-271); assay: as above; settings: tags: NFATc HMK site
[8] = molecular target: NFATp rel domain + c-Jun/Fra-1 (Homo sapiens, UniProt Q13469;P05412;P15407 Q13469:392-744,P05412:1-331,P15407:1-271); assay: EMSA; highly cooperative; similar affinity for all four NFATs; jun homodimers less effective; exact EMSA probe not stated; settings: tags: NFATp HMK site
[9] = molecular target: NFAT4 rel domain + c-Jun/Fra-1 (Homo sapiens, UniProt Q12968;P05412;P15407 Q12968:393-708,P05412:1-331,P15407:1-271); assay: EMSA; highly cooperative; NFAT4 alone does not bind; jun homodimers less effective; exact EMSA probe not stated; settings: tags: NFAT4 HMK site
[10] = molecular target: T3, NFAT4 rel domain; assay: EMSA; binding not detectable; core only printed; settings: tags: N-terminal 8 aa heart muscle kinase site (pT7-HMK), E. coli

Chain of NFAT4 rel domain + c-Jun/Fra-1 (P05412 whole entry, chain 2 of 2, the tested form may be a part): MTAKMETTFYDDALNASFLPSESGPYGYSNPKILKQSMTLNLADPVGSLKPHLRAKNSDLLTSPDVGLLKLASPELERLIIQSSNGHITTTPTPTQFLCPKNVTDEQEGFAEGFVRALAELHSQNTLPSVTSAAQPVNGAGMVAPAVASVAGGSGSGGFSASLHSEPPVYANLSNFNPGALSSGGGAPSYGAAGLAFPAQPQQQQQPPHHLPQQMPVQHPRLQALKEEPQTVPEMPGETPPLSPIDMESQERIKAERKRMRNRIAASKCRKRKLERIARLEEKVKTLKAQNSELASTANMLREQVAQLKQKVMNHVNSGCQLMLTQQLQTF
Chain of NFAT4 rel domain + c-Jun/Fra-1 (P15407 whole entry, chain 3 of 2, the tested form may be a part): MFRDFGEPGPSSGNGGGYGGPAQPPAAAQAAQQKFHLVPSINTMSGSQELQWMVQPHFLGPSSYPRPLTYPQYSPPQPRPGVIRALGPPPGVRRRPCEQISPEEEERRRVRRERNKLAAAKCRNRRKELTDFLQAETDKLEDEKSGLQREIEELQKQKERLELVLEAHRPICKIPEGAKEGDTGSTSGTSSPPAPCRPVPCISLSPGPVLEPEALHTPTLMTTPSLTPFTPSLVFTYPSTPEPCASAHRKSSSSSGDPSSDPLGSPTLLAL
Chain of NFATc rel domain + c-Jun/Fra-1 (P05412 whole entry, chain 2 of 2, the tested form may be a part): as the sequence (P05412 whole entry, chain 2 of 2, the tested form may be a part) above
Chain of NFATc rel domain + c-Jun/Fra-1 (P15407 whole entry, chain 3 of 2, the tested form may be a part): as the sequence (P15407 whole entry, chain 3 of 2, the tested form may be a part) above
Chain of NFAT3 rel domain + c-Jun/Fra-1 (P05412 whole entry, chain 2 of 2, the tested form may be a part): as the sequence (P05412 whole entry, chain 2 of 2, the tested form may be a part) above
Chain of NFAT3 rel domain + c-Jun/Fra-1 (P15407 whole entry, chain 3 of 2, the tested form may be a part): as the sequence (P15407 whole entry, chain 3 of 2, the tested form may be a part) above
Chain of NFATp rel domain + c-Jun/Fra-1 (Q13469 392-744, chain 1 of 3): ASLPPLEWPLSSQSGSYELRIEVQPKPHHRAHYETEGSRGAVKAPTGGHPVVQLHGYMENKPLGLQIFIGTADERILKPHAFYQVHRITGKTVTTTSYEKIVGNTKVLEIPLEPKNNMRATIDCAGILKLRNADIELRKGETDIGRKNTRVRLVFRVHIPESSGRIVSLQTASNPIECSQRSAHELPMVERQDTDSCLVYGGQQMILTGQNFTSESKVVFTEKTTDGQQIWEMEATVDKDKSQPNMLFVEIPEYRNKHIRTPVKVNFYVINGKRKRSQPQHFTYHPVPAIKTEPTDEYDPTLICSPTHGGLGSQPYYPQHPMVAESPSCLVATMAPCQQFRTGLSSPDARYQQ
Chain of NFATp rel domain + c-Jun/Fra-1 (P05412 whole entry, chain 2 of 3, the tested form may be a part): as the sequence (P05412 whole entry, chain 2 of 2, the tested form may be a part) above
Chain of NFATp rel domain + c-Jun/Fra-1 (P15407 whole entry, chain 3 of 3, the tested form may be a part): as the sequence (P15407 whole entry, chain 3 of 2, the tested form may be a part) above

3x antigen response element (-286 to -257) tk reporter
activity (fold activation) [1]: 140

B1: IL-4 promoter NFAT site (dsDNA)
DNA 1: TACATTGGAAAATTTTATTACAC
DNA 2: GTGTAATAAAATTTTCCAATGTA
binding result [2]: binds | binding signal [3]: > 10 fold lower affinity than NFATp, NFATc, NFAT3 | binding result [4]: binds | binding result [5]: binds

B2: IL-2 NFAT/AP-1 composite element (dsDNA)
DNA 1: GGAGGAAAAACTGTTTCATACAGAAGGCGT
DNA 2: ACGCCTTCTGTATGAAACAGTTTTTCCTCC
binding result [6]: binds | binding result [7]: binds | binding result [8]: binds | binding result [9]: binds

B3: IL-2 promoter NFAT site (distal antigen response element) (dsDNA)
DNA 1: GGAAAAACTG
DNA 2: CAGTTTTTCC
binding result [10]: no binding
